The target of assay [1] is IL-15Rβ/γ chain (IL-2Rβ and common gamma chain) on cyno CD8+ T cells and NK cells (cynomolgus monkey). Kind of assay: cell-based or functional assay.
For assay [2], the target named is T1, IL-15Rβ/γ chain (IL-2Rβ and common gamma chain) on human CD8+ T cells and NK cells (human, UniProt P14784 27-551; P31785 23-369).
T1 sequence (looked up) 1: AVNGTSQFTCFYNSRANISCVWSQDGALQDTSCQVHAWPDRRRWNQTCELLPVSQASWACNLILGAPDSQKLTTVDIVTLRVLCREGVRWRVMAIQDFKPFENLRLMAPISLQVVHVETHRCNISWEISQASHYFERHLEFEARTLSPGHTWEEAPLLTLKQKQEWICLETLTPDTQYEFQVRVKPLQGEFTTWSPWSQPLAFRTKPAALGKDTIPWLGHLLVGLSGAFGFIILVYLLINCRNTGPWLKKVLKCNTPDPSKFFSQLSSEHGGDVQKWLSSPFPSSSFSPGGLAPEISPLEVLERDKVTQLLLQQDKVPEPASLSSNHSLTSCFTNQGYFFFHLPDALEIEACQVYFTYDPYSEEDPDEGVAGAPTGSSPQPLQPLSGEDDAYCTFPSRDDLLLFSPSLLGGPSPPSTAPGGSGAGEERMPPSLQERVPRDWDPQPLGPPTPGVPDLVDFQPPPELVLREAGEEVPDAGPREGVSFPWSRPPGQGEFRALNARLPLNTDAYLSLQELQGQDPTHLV
T1 sequence (looked up) 2: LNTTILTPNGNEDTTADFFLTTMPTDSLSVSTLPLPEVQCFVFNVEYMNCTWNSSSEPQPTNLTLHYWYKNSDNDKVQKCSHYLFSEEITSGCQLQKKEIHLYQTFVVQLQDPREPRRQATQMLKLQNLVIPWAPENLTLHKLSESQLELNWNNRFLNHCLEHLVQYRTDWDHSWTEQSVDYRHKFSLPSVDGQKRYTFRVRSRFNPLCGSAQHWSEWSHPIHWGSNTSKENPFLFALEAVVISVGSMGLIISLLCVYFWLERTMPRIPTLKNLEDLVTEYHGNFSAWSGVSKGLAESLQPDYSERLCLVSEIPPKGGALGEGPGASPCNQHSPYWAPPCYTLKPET
Put plainly: cell-based or functional assay.

Numbering of substitutions follows the chain as printed.

B1: W327151-TXU1.P1-V0001.uIgG1v805 (Fc fusion)
chain 1: NWVNVISADLKKIEDLIQSMHIDATLYTESDVHPSCKVTAMKCFLLELQVISLESGDASIHDTVENLIILANNSLSSNGNVTESGCKECEELEEKNIKEFLQSFVHIVQMFINTSGGGGSEPKSSDKTHTCPPCPAPELLRGPSVFLFPPKPKDTLYITREPEVTCVVVDVSHEDPEVKFNWYVDGVEVHNAKTKPREEQYNSTYRVVSVLTVLHQDWLNGKEYKCKVSNKARPAPIEKTISKAKGQPREPQVYTLPPCREEMTKNQVSLWCLVKGFYPSDIAVEWESNGQPENNYKTTPPVLDSDGSFFLYSKLTVDKSRWQQGNVFSCSVMHEALHNHYTQKSLSLSPG
chain 2: ITCPPPMSVEHADIWVKSYSLYSRERYICNSGFKRKAGTSSLTECVLNKATNVAHWTTPSLKCIRGGGGSEPKSSDKTHTCPPCPAPELLRGPSVFLFPPKPKDTLYITREPEVTCVVVDVSHEDPEVKFNWYVDGVEVHNAKTKPREEQYNSTYRVVSVLTVLHQDWLNGKEYKCKVSNKARPAPIEKTISKAKGQPREPQVCTLPPSREEMTKNQVSLSCAVKGFYPSDIAVEWESNGQPENNYKTTPPVLDSDGSFFLVSKLTVDKSRWQQGNVFSCSVMHEALHNHYTQKSLSLSPG
B1: in assay [1], the “EC50, % Ki67 expression, cyno donor 1 CD8+ T cells” value came to 29.2 nM; the “EC50, % Ki67 expression, cyno donor 1 NK cells” value was 65.6 nM; the “Fold reduced (EC50, % Ki67), cyno donor 1 CD8+ T cells” value turned out to be 325 fold; the “Fold reduced (EC50, % Ki67), cyno donor 1 NK cells” value turned out to be 729 fold. Besides, in assay [2], the “EC50, % Ki67 expression, human CD8+ T cells” value is 338 nM; the “EC50, % Ki67 expression, human NK cells” value is 29.2 nM; the “Fold reduced (EC50, % Ki67), human CD8+ T cells” value stood at 1840 fold; the “Fold reduced (EC50, % Ki67), human NK cells” value is 1390 fold.

B2: W327151-TXU1.P1-V0004.uIgG1v805 (Fc fusion)
chain 1: B1 chain 1 with A8D, D9L, L10K, K11A
chain 2: B1 chain 2
In the case of B2, in assay [1], the “EC50, % Ki67 expression, cyno donor 1 CD8+ T cells” value was found to be 3.37 nM; the “EC50, % Ki67 expression, cyno donor 1 NK cells” value turned out to be 10.3 nM; the “Fold reduced (EC50, % Ki67), cyno donor 1 CD8+ T cells” value stood at 37 fold; the “Fold reduced (EC50, % Ki67), cyno donor 1 NK cells” value is 115 fold. Besides, in assay [2], the “EC50, % Ki67 expression, human CD8+ T cells” value was determined as 22.5 nM; the “EC50, % Ki67 expression, human NK cells” value was 6.72 nM; the “Fold reduced (EC50, % Ki67), human CD8+ T cells” value was 122 fold; the “Fold reduced (EC50, % Ki67), human NK cells” value stood at 320 fold.

B3: W327151-TXU1.P1-V0005.uIgG1v805 (Fc fusion)
chain 1: NWVNVISDLKKIEDLIQSMHIDATLYTESDVHPSCKVTAMKCFLLELQVISLESGDASIHDTVEANLIILANNSLSSNGNVTESGCKECEELEEKNIKEFLQSFVHIVQMFINTSGGGGSEPKSSDKTHTCPPCPAPELLRGPSVFLFPPKPKDTLYITREPEVTCVVVDVSHEDPEVKFNWYVDGVEVHNAKTKPREEQYNSTYRVVSVLTVLHQDWLNGKEYKCKVSNKARPAPIEKTISKAKGQPREPQVYTLPPCREEMTKNQVSLWCLVKGFYPSDIAVEWESNGQPENNYKTTPPVLDSDGSFFLYSKLTVDKSRWQQGNVFSCSVMHEALHNHYTQKSLSLSPG
chain 2: B1 chain 2
In the case of B3, in assay [1], the “EC50, % Ki67 expression, cyno donor 2 CD8+ T cells” value stood at 100 nM; the “EC50, % Ki67 expression, cyno donor 2 NK cells” value amounted to 26.3 nM; the “Fold reduced (EC50, % Ki67), cyno donor 2 CD8+ T cells” value amounted to 5890 fold; the “Fold reduced (EC50, % Ki67), cyno donor 2 NK cells” value is 3290 fold. For the same molecule, in assay [2], the “EC50, % Ki67 expression, human CD8+ T cells” value worked out at 352 nM; the “EC50, % Ki67 expression, human NK cells” value was determined as 106 nM; the “Fold reduced (EC50, % Ki67), human CD8+ T cells” value was found to be 1910 fold; the “Fold reduced (EC50, % Ki67), human NK cells” value stood at 5030 fold.

B4: W327151-TXU1.P1-V0002.uIgG1v805 (Fc fusion)
chain 1: B1 chain 1 with A8D, D9A
chain 2: B1 chain 2
In the case of B4, in assay [2], the “EC50, % Ki67 expression, human CD8+ T cells” value came out at 174 nM; the “EC50, % Ki67 expression, human NK cells” value is 19.1 nM; the “Fold reduced (EC50, % Ki67), human CD8+ T cells” value amounted to 947 fold; the “Fold reduced (EC50, % Ki67), human NK cells” value turned out to be 911 fold.

B5: W327151-TXU1.P1-V0006.uIgG1v805 (Fc fusion)
chain 1: B3 chain 1 with A65N, N66A
chain 2: B1 chain 2
In the case of B5, in assay [1], the “EC50, % Ki67 expression, cyno donor 2 CD8+ T cells” value is 2.59 nM; the “EC50, % Ki67 expression, cyno donor 2 NK cells” value worked out at 1.04 nM; the “Fold reduced (EC50, % Ki67), cyno donor 2 CD8+ T cells” value is 153 fold; the “Fold reduced (EC50, % Ki67), cyno donor 2 NK cells” value stood at 130 fold. In assay [2], the “EC50, % Ki67 expression, human CD8+ T cells” value is 13.5 nM; the “EC50, % Ki67 expression, human NK cells” value came to 1.58 nM; the “Fold reduced (EC50, % Ki67), human CD8+ T cells” value was found to be 73.5 fold; the “Fold reduced (EC50, % Ki67), human NK cells” value came out at 75.1 fold.

These data come from patent US20230270823A1 (WUXI BIOLOGICS IRELAND, published 2023).
